Measured values from publication PMC8202330, “Phosphorylation of the LIR Domain of SCOC Modulates ATG8 Binding Affinity and Specificity” (Journal of Molecular Biology, 2021).
Non-standard residues stand in square brackets, D forms with d. *: point of attachment. Biotin = O=C1N[C@H]2[C@H](CS[C@H]2CCCCC(=O)*)N1; pS = N[C@@H](COP(=O)(O)O)C(=O)O; linker = not defined here

T1: SCOC aa 11–25 LIR peptide (human, reading uncertain)
T1 construct: SCOC isoform 3 aa 11-25; also called SCOC LIR motif (aa 11–25); source: synthetic peptide
T1 peptide: {Biotin-linker}-DSTFTNISLADDIDH-NH2

T2: SCOC pS12 LIR peptide (human, phosphoserine at 12; biotin-linker on the N-terminus; C-terminal amide)
T2 construct: SCOC isoform 3 aa 6-25; source: synthetic peptide
T2 peptide: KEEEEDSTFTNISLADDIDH

T3: SCOC aa 6–18 LIR peptide (human, reading uncertain)
T3 construct: SCOC isoform 3 aa 6-18; source: synthetic peptide
T3 peptide: {Biotin-linker}-KEEEEDSTFTNIS-NH2

T4: SCOC pS12/pT15 LIR peptide (human, phosphoserine at 12; phosphothreonine at 15; biotin-linker on the N-terminus; C-terminal amide)
T4 construct: SCOC isoform 3 aa 6-25; also called S12/T15^SCOC; source: synthetic peptide
T4 peptide: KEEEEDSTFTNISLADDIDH

B1: GABARAP (for BLI) (natural protein, human, UniProt O95166 1-117, looked up)
chain: MKFVYKEEHPFEKRRSEGEKIRKKYPDRVPVIVEKAPKARIGDLDKKKYLVPSDLTVGQFYFLIRKRIHLRAEDALFFFVNNVIPPTSATMGQLYQEHHEEDFFLYIAYSDESVYGL
notes: human GABARAP in the pAL plasmid (GST, 3C site)
B2: LC3C (for BLI) (natural protein, human, UniProt Q9BXW4 1-126, looked up)
chain: MPPPQKIPSVRPFKQRKSLAIRQEEVAGIRAKFPNKIPVVVERYPRETFLPPLDKTKFLVPQELTMTQFLSIIRSRMVLRATEAFYLLVNNKSLVSMSATMAEIYRDYKDEDGFVYMTYASQETFG
notes: human LC3C in the pAL plasmid (GST, 3C site)

Tests used:
Assay in all cases: BLI; biotinylated LIR peptide immobilized on streptavidin biosensor, ATG8 in solution; 25 mM Tris pH 7.5, 150 mM NaCl, 0.5 mM TCEP, 0.1% Tween20, 1 mg/ml BSA; 25 °C; Kd from response against concentration
Settings in all cases: both partners purified
[1] = target: T5, GABARAPL1 (for BLI) (human, UniProt Q9H0R8 1-117)
T5 construct: human GABARAPL1 in the pAL plasmid (GST, 3C site)

[2] = target: T6, LC3A (for BLI) (human, UniProt Q9H492 1-121)
T6 construct: human LC3A in the pAL plasmid (GST, 3C site)

[3] = target: LC3B (for BLI) (human, UniProt Q9GZQ8 1-120)
[4] = target: B1
[5] = target: T7, GABARAPL2 (for BLI) (human, UniProt P60520 1-117)
T7 construct: human GABARAPL2 in the pAL plasmid (GST, 3C site)

[6] = target: B2
[7] = target: T1, SCOC aa 11–25 LIR peptide
[8] = target: T2, SCOC pS12 LIR peptide
[9] = target: T3, SCOC aa 6–18 LIR peptide
[10] = target: T4, SCOC pS12/pT15 LIR peptide

T7 sequence (P60520 whole entry): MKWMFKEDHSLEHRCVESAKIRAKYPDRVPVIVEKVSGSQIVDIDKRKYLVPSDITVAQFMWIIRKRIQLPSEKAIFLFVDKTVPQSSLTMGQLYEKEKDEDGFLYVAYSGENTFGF

Binder	fold decrease in affinity against SCOC WT LIR peptide [7]	fold decrease in affinity against SCOC WT LIR peptide [9]	binding result [1]	binding result [4]	binding result [6]	further results
{Biotin-linker}-KEEEEDSTFTNISLADDIDH-NH2 (reading uncertain, SCOC isoform 3 aa 6-25; also called SCOC (WT) LIR domain peptide; SCOC LIR; source: synthetic peptide) [SCOC WT (aa 6–25) LIR peptide]						Kd [1]: 2.3 µM; Kd [2]: 27.8 µM; Kd [3]: 270 µM; Kd [4]: 3.6 µM; Kd [5]: 44.4 µM; Kd [6]: 8.7 µM
B1	37 fold	4 fold				fold increase in affinity over SCOC WT LIR peptide [8]: 2 fold
B2	16 fold	22 fold				fold increase in affinity over SCOC WT LIR peptide [10]: 21 fold
{Biotin-linker}-KEEEEDSTFTNISLA-NH2 (reading uncertain, SCOC isoform 3 aa 6-20; also called SCOC LIR motif (aa 6–20); source: synthetic peptide) [SCOC aa 6–20 LIR peptide]			binds	binds	binds	
{Biotin-linker}-KEEEEDSTFTNI[pS]LA-NH2 (reading uncertain, SCOC isoform 3 aa 6-20; source: synthetic peptide) [SCOC aa 6–20/pS18 LIR peptide]			binds	binds	binds	binding result [2]: binds
